Reference: the supplement of paper PMC10567573

B1: CCND1 (parent)
chain: IRRAYPDANLLNDRVLRAMLKAEE

Variants of: B1
Assay: protein stability index of a GFP-peptide fusion (GPS, HEK-293T) (PSI 1-6); higher = more stable
Details: c terminus: a fixed tail appended
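Also: lentivirally expressed fusions sorted by FACS into six bins by GFP to DsRed ratio, PSI derived from sequencing read proportions per bin multiplied by bin number.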

Protein stability index: each site, then its substitutions
D7: N 3.11; F 1.65; K 2.1; E 2.06; T 2.23; P 2.09; S 2.43; A 1.83; W 2.36; L 1.84; H 2.14; Y 2.13
A4: F 1.4; L 1.84; M 2.58; I 2.4; V 1.79; P 3.12; Q 2.37; R 2.37; K 2.3; E 2.04; C 2.17; W 3.03; H 2.4; T 2.12; Y 2.68; N 2.59
P6: F 2.4; M 2.99; I 2.21; G 2.13; L 2.42; A 1.75; E 2.14; S 3.19; T 1.88; D 1.43; Y 1.63; V 3.38; R 2.35
A8: V 3.02; R 3.16; I 2.02; C 2.78; K 2.53; P 3.03; F 2.54; S 2.81; Y 2.4; N 3.46; L 2.04; H 2.28; T 2.61; M 2.85
L11: P 2.48; W 2.02; V 2.72; M 1.92; K 3.33; T 3.04; C 2.69; I 2.43; G 2.84; N 1.97; S 3.01; F 1.75; E 3.58; Q 3.79; D 4.19
Y5: N 2.43; C 2.9; G 2.14; P 3.69; T 3.49; A 3.33; E 2.51; K 3.3; L 3.07; H 2.02; D 1.54; R 2.53; W 2.13
R2: E 3.49; H 2.08; D 4.09; T 2.92; Y 1.6; A 3.82; Q 3.03; L 2.39; I 2.4; F 1.94; K 2.87; N 2.84; P 3.68; C 2.25; M 3.37; W 3.61
I1: R 2.21; V 2.69; W 2.32; T 2.27; S 3.94; Q 3.45
D13: A 2.28; H 2.2; F 2.34; C 2.72; I 2.91; K 2.45
R3: V 1.54; K 2.84; M 2.35; D 4.23; I 1.13; Q 3.62; P 2.71; G 3.44; E 3.72; T 3.17; N 2.66; W 1.99; F 1.87; H 2.92; Y 2.05; A 2.86
N9: Y 2.11; E 3.04; T 2.63; G 2.34; V 2.26; A 2.34; D 2.3; F 1.71; S 2.44; I 2.36; R 2.06
N12: G 3.05; H 2.5; Y 2.52; E 3.41; W 2.19; S 2.11; F 1.9; Q 2.39; K 2.15; D 2.87; P 1.84; C 2.51; A 3.21; R 2.73
L10: S 2.14; A 2.48; W 2.02; V 2.49; F 2.52; I 1.22; H 2.94; T 3.13; R 3.08; D 3.97; Y 3.34; K 3.23; N 3.58; Q 3.38; P 2.63
